This note sets out measurements from publication PMC10185811, “FAT10 and NUB1L cooperate to activate the 26S proteasome” (Life Science Alliance, 2023).

The target of assay [1] is T1, NUB1L (NEDD8 ultimate buster 1 long), tagless (human, UniProt Q9Y5A7-1 1-615).
T1 construct: NUB1L, human, the long splice variant of NUB1 with one UBL and three UBA domains, printed mass 69.1 kD; The long splice variant is meant; which UniProt isoform id holds it was not checked; By my reading of the printed primers the insert begins at Ala2 (AQKKYLQ) and runs to the stop codon; also called NUB1 long; full-length WT NUB1L; source: recombinant, cloned into the pSUMO vector; expression, …
T1 sequence (looked up): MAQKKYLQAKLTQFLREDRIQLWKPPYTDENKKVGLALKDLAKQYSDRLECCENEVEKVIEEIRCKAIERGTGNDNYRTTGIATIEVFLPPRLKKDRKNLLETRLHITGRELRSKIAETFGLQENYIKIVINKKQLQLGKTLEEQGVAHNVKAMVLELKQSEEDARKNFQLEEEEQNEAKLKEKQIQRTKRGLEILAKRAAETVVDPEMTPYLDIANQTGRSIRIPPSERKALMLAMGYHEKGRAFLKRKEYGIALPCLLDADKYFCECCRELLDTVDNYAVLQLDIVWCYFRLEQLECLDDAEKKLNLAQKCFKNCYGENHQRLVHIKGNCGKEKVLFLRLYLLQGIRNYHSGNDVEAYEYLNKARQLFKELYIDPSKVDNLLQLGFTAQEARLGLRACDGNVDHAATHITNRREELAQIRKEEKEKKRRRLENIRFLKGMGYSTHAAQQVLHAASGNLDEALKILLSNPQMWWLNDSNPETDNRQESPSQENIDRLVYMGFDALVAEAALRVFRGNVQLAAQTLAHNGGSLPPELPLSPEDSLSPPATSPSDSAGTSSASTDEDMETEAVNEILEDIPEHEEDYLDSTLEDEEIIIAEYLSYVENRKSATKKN
Put plainly: BLI; Octet; His6-RPN1 loaded on the nickel sensor; NUB1L, GST-FAT10, NUB1L with GST-FAT10 or NUB1L with GST in solution; Octet buffer (PBS, 0.1% Triton X-100, 1x ROTIBlock); 1:1 binding model. As to conditions: both partners purified.

The target in a further assay is T2, His6-RPN10 (human, UniProt P55036 1-377).
T2 construct: RPN10 (hS5α), subunit of the 19S regulator of the 26S proteasome, human; also called His–RPN10; hS5α; source: recombinant; expression and purification described before (Rani et al, 2012)
Put plainly: BLI; Octet; His6-RPN10 on the sensor; GST-FAT10 alone or together with NUB1LΔUBL in solution; Octet buffer; 1:1 binding model. As to conditions: both partners purified. For orientation: In BLI a coated tip is dipped into the sample, and binding shifts an interference pattern.

T2 sequence (P55036 whole entry): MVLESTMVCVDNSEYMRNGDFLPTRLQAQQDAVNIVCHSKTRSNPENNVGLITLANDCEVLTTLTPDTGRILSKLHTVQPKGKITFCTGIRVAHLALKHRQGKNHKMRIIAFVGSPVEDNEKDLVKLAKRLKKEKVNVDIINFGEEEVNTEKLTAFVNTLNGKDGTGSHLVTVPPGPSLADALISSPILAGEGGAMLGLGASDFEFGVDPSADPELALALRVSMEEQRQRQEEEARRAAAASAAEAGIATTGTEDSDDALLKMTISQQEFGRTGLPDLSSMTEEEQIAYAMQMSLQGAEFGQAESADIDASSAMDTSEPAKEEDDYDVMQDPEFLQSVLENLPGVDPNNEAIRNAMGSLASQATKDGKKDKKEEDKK

B1: GST-FAT10 (natural protein, human, UniProt O15205 1-165, looked up)
chain: MAPNASCLCVHVRSEEWDLMTFDANPYDSVKKIKEHVRSKTKVPVQDQVLLLGSKILKPRRSLSSYGIDKEKTIHLTLKVVKPSDEELPLFLVESGDEAKRHLLQVRRSSSVAQVKAMIETKTGIIPETQIVTCNGKRLEDGKMMADYGIRKGNLLFLACYCIGG
notes: FAT10 (HLA-F adjacent transcript 10), human; source: recombinant; expression and purification previously described (Schmidtke et al, 2006)
Turning to B1, the binding result (in assay [1]; in the assay with His6-RPN10) was “binds” throughout.
